Source: paper PMC4123461 (Experimental eye research, 2014)
Positions count from the first letter of the chain named. In names and notes the source's numbering stands.

B1: N179del Best1-YFP (natural protein, human, UniProt O76090 1-585, looked up)
chain: MTITYTSQVANARLGSFSRLLLCWRGSIYKLLYGEFLIFLLCYYIIRFIYRLALTEEQQLMFEKLTLYCDSYIQLIPISFVLGFYVTLVVTRWWNQYENLPWPDRLMSLVSGFVEGKDEQGRLLRRTLIRYANLGNVLILRSVSTAVYKRFPSAQHLVQAGFMTPAEHKQLEKLSLPHMFWVPWVWFANLSMKAWLGGRIRDPILLQSLLNEMNTLRTQCGHLYAYDWISIPLVYTQVVTVAVYSFFLTCLVGRQFLNPAKAYPGHELDLVVPVFTFLQFFFYVGWLKVAEQLINPFGEDDDDFETNWIVDRNLQVSLLAVDEMHQDLPRMEPDMYWNKPEPQPPYTAASAQFRRASFMGSTFNISLNKEEMEFQPNQEDEEDAHAGIIGRFLGLQSHDHHPPRANSRTKLLWPKRESLLHEGLPKNHKAAKQNVRGQEDNKAWKLKAVDAFKSAPLYQRPGYYSAPQTPLSPTPMFFPLEPSAPSKLHSVTGIDTKDKSLKTVSSGAKKSFELLSESDGALMEHPEVSQVRRKTVEFNLTDMPEIPENHLKEPLEQSPTNIHTTLKDHMDPYWALENRDEAHS
B2: WT Best1-YFP (natural protein, human, UniProt O76090 1-585, looked up)
chain: MTITYTSQVANARLGSFSRLLLCWRGSIYKLLYGEFLIFLLCYYIIRFIYRLALTEEQQLMFEKLTLYCDSYIQLIPISFVLGFYVTLVVTRWWNQYENLPWPDRLMSLVSGFVEGKDEQGRLLRRTLIRYANLGNVLILRSVSTAVYKRFPSAQHLVQAGFMTPAEHKQLEKLSLPHNMFWVPWVWFANLSMKAWLGGRIRDPILLQSLLNEMNTLRTQCGHLYAYDWISIPLVYTQVVTVAVYSFFLTCLVGRQFLNPAKAYPGHELDLVVPVFTFLQFFFYVGWLKVAEQLINPFGEDDDDFETNWIVDRNLQVSLLAVDEMHQDLPRMEPDMYWNKPEPQPPYTAASAQFRRASFMGSTFNISLNKEEMEFQPNQEDEEDAHAGIIGRFLGLQSHDHHPPRANSRTKLLWPKRESLLHEGLPKNHKAAKQNVRGQEDNKAWKLKAVDAFKSAPLYQRPGYYSAPQTPLSPTPMFFPLEPSAPSKLHSVTGIDTKDKSLKTVSSGAKKSFELLSESDGALMEHPEVSQVRRKTVEFNLTDMPEIPENHLKEPLEQSPTNIHTTLKDHMDPYWALENRDEAHS
B3: A146L Best1-YFP (natural protein, human, UniProt O76090 1-585, looked up)
chain: B2 chain with A146L

target: T1, Best1-CFP (human, UniProt O76090 1-585); assay: FRET or BRET
T1 sequence (looked up): B2 chain

Compared with B1, B2 is higher in “FRET efficiency (%E)” value: 12.4% for the first, 13.6% for the second.

In the case of B3, the “FRET efficiency (%E)” value is reported as 14.8%.
